Data published in patent US20260070960A1 (US Dept. of Health and Human Services, published 2026).
Residue numbers refer to the chain shown, from its start.

B1: single-domain antibody F5 (camel VHH nanobody) (VHH)
VHH: EVQLVESGGGSVQAGGSLRLSCAASGFTFSNNRMGWVRQAPGKGLEWVSDINSSGGVTEYADSVKGRFTISRDNAKNTLYLQLNSLKIEDTAIYYCVYYSYLMRLRPGQGTQVTVSS
notes: also called VHH F5; nanobody F5
B2: single-domain antibody G9 (camel VHH nanobody) (VHH)
VHH: B1 VHH with S11L, A14P, A23V
notes: also called nanobody G9

Tests used:
[1] = target: T1, E7 peptide (…) in complex with HLA-A*02:01 on T2 cells (human; human papillomavirus (HPV)); test: FACS on 293E7 cells, APC-anti-Flag; nanobody concentration not given
T1 construct: whole, on cells

[2] = target: pMHC-E6, HLA-A*02:01-[…] monomer (refolded, soluble) (human; human papillomavirus (HPV))

Binder | binding result [1] | Kd [2]
B1 | no binding | 1500 nM
B2 | no binding | 
